Kd data for one molecule are collected here from article PMC12373997, “Conserved function of the HAUS6 calponin homology domain in anchoring augmin for microtubule branching” (Nature Communications, 2025).

In this assay the target is T1, Taxol-stabilized microtubules polymerised from purified porcine brain tubulin (porcine, UniProt P02550 1-451; P02554 1-439).
T1 construct: P81947 was used only for the MD model; Q6B856 was used only for the MD model; Polymer of α/β-tubulin heterodimers (13- and 14-protofilament MTs in cryo-EM); brain tubulin is probably a mix of isotypes; Concentrations are α/β-tubulin heterodimer molarity; also called MTs; MT; source: tubulin purified from porcine brain; polymerised in vitro with GTP and paclitaxel
In words: co-sedimentation; tubulin co-sedimentation: taxol-stabilized MTs (varied, α/β-tubulin heterodimer molarity) with 1 µM purified N-clamp, 0.25 mg/ml BSA, BRB80-MT buffer (80 mM PIPES, 1 mM MgCl2, 1 mM EGTA, 12.5% glycerol, pH 6.8), 20 min at room temperature, 200,000 g 10 min 27 °C; SDS-PAGE densitometry of pellet; apparent Kd from a quadratic fit. The settings on record: both partners purified.

B1: D. melanogaster augmin N-clamp with Dgt4 lacking its N-terminal extension (complex)
chain 1: MSDAVDKMLAGMAANRQTMNRQLAKIDEIMERSNNTLLHIESNSKAFSQNVALSETQKMYNLRPEAEMTLSKILENFKLLMSSSDQREETYSALEGCLAYRHRVEHLGSSVRKLVALYDTVGQMKNSQEEQYASEDSP
chain 2: MDRTIIAPWKAEEKEQSEKLHRKLQGLALVHPLPDELRKLIAWDMFLKPNQVAFVHVMHYLFRLLDPAEFKRRFFWPITDKKSEANFRSSTVEYLKHLNEKHQLHWANIKSYLVVMPGGMRFINFLLEFVGFVIQELIKQREKSLGLEAGTPNVSAKVMARQNAVMKEYASSYVVNLEENTALLRDKTQKIRRLMADLSADMGVPEEQLADDGFLDEFEATAALGVERVITQPTERKFDLEASLCGLKEAIDLFQVKQAENNQSKEAVEKALRGMRVLFD
chain 3: METNVDFSSISSKLYRKYAQHVRNLKDVCVSKTVMKPGAFFDSLQQMMEEEAAATTPPRDLSSVADYAELFKTLEEYPANLQKMPKKRELQRTNSTLLRGADESVAMGINTSNVSLSLTRLEEQRSAVDVYNDFKGFQRKLAKIYDEAAALDTTESIYKQKLTQLHGFAQQLEKLMPTGGESPPDAFTSEQ
chain 4: MDDIQYLLHLEAMRRFQEDSRNVKRQVEEQVRIWLDAKCEYQRDFGRLARLLKCGALQAAVDAHRVSDVNQVDQAAKDIASLRSKLGS
modifications: Dgt4-deltaNT start (MDDIQY) read from the printed N-del primer, Dgt4 end from 9RPD entity 1; Dgt6 from 9RPD entity 2; Msd5 end is estimated from the length of the 9RPD fusion entity; Msd1 is assumed …
For B1, the Kd came to 2.9 µM.
